The test deals with human short form of the 5-HT3-A receptor (Genbank accession #D49394) (human) (UniProt P46098). The test can be described thus: cell-based or functional assay.

We go through one substance from US20020137138A1.

Chain of human short form of the 5-HT3-A receptor (Genbank accession #D49394) (human) (P46098 24-478): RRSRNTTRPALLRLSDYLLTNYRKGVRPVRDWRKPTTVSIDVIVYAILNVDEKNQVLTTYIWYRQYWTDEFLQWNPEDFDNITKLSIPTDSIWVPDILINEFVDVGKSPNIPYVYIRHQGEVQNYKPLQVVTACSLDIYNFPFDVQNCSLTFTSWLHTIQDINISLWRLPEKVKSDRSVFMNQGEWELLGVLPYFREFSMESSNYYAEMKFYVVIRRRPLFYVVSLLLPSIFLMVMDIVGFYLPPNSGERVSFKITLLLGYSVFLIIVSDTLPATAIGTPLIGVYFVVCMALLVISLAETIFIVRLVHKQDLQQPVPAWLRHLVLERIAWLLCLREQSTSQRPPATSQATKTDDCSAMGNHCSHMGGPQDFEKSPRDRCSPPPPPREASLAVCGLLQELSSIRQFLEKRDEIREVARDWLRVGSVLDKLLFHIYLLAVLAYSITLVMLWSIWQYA

As for “human 5-HT3-C (human serotonin 5-HT3 receptor modifier subunit 5-HT3-C) (from UniProt Q8WXA8 28-447)”, the 5-HT response, oocytes at a 1.8x fold 5-HT3-C to 5-HT3-A cRNA concentration stood at 20 % diminished; the peak current to 5-HT, oocytes injected with 5-HT3-C and 5-HT3-A(short) at a ratio of 2:1 was -0.028 nA; the peak response to 10 µM 5-HT (two-electrode voltage clamp, Xenopus oocytes co-injected with 2-fold more 5-HT3-C cRNA, 0.67 ng) was 10 % of control; the response to 10 µM 5-HT, oocytes injected with 5-HT3-C:5-HT3-A(short) at 10:1 (3.35 ng : 0.33 ng cRNA) is -0.01 nA.
